Test results published in patent US20240294622A1.
pIC50: −log10 of the molar value.

Biological target: DAN-his (Sinobiological) (human) (UniProt P41271)
Assay: blocking ELISA: coated BMP2, antibody pre-incubated with human DAN-his, anti-his HRP; blocked ligand BMP2; fit value of a flat control curve; unit from the axis Concentration(nM)

DAN-his (Sinobiological) (human), sequence (P41271 17-181 limits assumed): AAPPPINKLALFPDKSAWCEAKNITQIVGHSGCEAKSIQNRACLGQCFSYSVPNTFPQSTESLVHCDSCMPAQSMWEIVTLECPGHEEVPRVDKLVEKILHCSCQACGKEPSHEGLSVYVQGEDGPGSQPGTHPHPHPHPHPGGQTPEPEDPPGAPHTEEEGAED

pIC50: 7.61
Substance: IgG1 (antibody)
